Measured values as given in the MegaScale stability set (Tsuboyama et al. 2023).

B1: 6NMW (parent)
chain: QGDIVVALYPYDGIHPDDLSFKKGEKMKVLEEHGEWWKAKSLLTKKEGFIPSNYVAKLN

Variants of: B1
Experiment: folding stability dG (cDNA display proteolysis); higher = more stable
Conditions: PBS, room temperature

Variant | folding stability dG
N53I | 2.98 kcal/mol
N53M | 3.07 kcal/mol
N53Y | 3.12 kcal/mol
T44K | 0.416 kcal/mol
T44R | 0.922 kcal/mol
T44Q | 1.26 kcal/mol
T44L | 0.417 kcal/mol
K45A | 3.94 kcal/mol
K45Y | 3.97 kcal/mol
K45D | 4.09 kcal/mol
K45E | 4.09 kcal/mol
K45F | 4.45 kcal/mol
V5K | -0.356 kcal/mol
V5R | 0.357 kcal/mol
V5G | -0.073 kcal/mol
V5Q | -0.613 kcal/mol
V5M | 1.65 kcal/mol
P10Q | 3.77 kcal/mol
P10W | 2.74 kcal/mol
P10N | 4.84 kcal/mol
P10I | 1.94 kcal/mol
P10L | 2.23 kcal/mol
P10F | 2.47 kcal/mol
P10M | 2.75 kcal/mol

Variant | folding stability dG
P10C | 3.89 kcal/mol
E31Y | 3.07 kcal/mol
E31F | 3.14 kcal/mol
E31W | 3.2 kcal/mol
E31R | 2.56 kcal/mol
E31P | -0.549 kcal/mol
E31I | 2.98 kcal/mol
Q1D | 3.76 kcal/mol
Q1M | 3.74 kcal/mol
Q1S | 3.89 kcal/mol
Q1K | 4.1 kcal/mol
Q1L | 4.29 kcal/mol
Q1G | 3.67 kcal/mol
Q1E | 3.97 kcal/mol
Q1Y | 4.04 kcal/mol
Y11W | 4.27 kcal/mol
L43M | 3.25 kcal/mol
L43E | 3.22 kcal/mol
L43S | 3.38 kcal/mol
L43G | 2.02 kcal/mol
L43C | 3.7 kcal/mol
L43H | 3.1 kcal/mol
L43A | 3.2 kcal/mol
L43K | 3.17 kcal/mol

Variant | folding stability dG
K28R | 4.26 kcal/mol
K28N | 2.02 kcal/mol
K28E | 4.07 kcal/mol
K28D | 1.21 kcal/mol
K28C | 3.9 kcal/mol
K28T | 3.27 kcal/mol
K28Y | 4.2 kcal/mol
L30N | 0.519 kcal/mol
L30T | 2.04 kcal/mol
L30S | 1.5 kcal/mol
L30M | 2.85 kcal/mol
L30H | 0.943 kcal/mol
L30Q | 1.56 kcal/mol
L30E | 1.21 kcal/mol
A39S | 0.729 kcal/mol
A39C | 4.07 kcal/mol
A39F | -0.401 kcal/mol
F21L | -0.236 kcal/mol
F21I | 0.968 kcal/mol
F21C | 0.758 kcal/mol
F21W | -0.416 kcal/mol
K57T | 2.85 kcal/mol
K57R | 4.37 kcal/mol
K57G | 2.27 kcal/mol

Variant | folding stability dG
K57Q | 2.68 kcal/mol
K57F | 3.96 kcal/mol
P51L | 1.54 kcal/mol
P51E | 0.647 kcal/mol
P51V | -0.225 kcal/mol
P51C | 2.34 kcal/mol
P51A | 0.249 kcal/mol
E25Y | 0.16 kcal/mol
E25L | -0.25 kcal/mol
E25H | 0.959 kcal/mol
E25W | 1.22 kcal/mol
G24T | 0.282 kcal/mol
G24R | 0.941 kcal/mol
G24F | 2.13 kcal/mol
G24N | 2.19 kcal/mol
G24M | 1.07 kcal/mol
G24E | 1.16 kcal/mol
I14P | 2.57 kcal/mol
I14G | 2.9 kcal/mol
I14V | 3.97 kcal/mol
I14Q | 3.67 kcal/mol
I14W | 2.68 kcal/mol
I14T | 3.68 kcal/mol
I14Y | 3.08 kcal/mol

Variant | folding stability dG
I14C | 4.14 kcal/mol
V55P | -0.707 kcal/mol
V55A | 1.47 kcal/mol
S41A | 1.22 kcal/mol
S41D | 0.362 kcal/mol
S41M | 1.38 kcal/mol
S41K | 1.64 kcal/mol
K26H | 4.3 kcal/mol
K26E | 2.52 kcal/mol
K26Y | 4.84 kcal/mol
K26T | 3.12 kcal/mol
K26Q | 3.56 kcal/mol
I4Q | 1.21 kcal/mol
I4P | -0.054 kcal/mol
I4H | 1.74 kcal/mol
I4F | 2.76 kcal/mol
I4V | 3.08 kcal/mol
I4N | 0.755 kcal/mol
N59V | 3.95 kcal/mol
N59R | 3.22 kcal/mol
N59D | 3.82 kcal/mol
N59F | 3.48 kcal/mol
V29F | 1.05 kcal/mol
V29C | 1.16 kcal/mol

Variant | folding stability dG
V29Y | 0.219 kcal/mol
V29M | 1.93 kcal/mol
V29Q | 0.108 kcal/mol
H15Y | 3.75 kcal/mol
H15W | 3.39 kcal/mol
H15G | 3.99 kcal/mol
H15E | 2.54 kcal/mol
Y54G | 0.76 kcal/mol
Y54T | 1.16 kcal/mol
Y54E | 0.003 kcal/mol
Y54F | 3.51 kcal/mol
Y54H | 2.9 kcal/mol
Y54K | 2.44 kcal/mol
Y54C | 2.85 kcal/mol
S20D | 1.82 kcal/mol
S20P | 2.81 kcal/mol
S20K | 2.48 kcal/mol
S20N | 2.01 kcal/mol
S20V | 2.33 kcal/mol
D12K | 4.34 kcal/mol
D12H | 4.08 kcal/mol
D12L | 3.69 kcal/mol
D12P | 3.14 kcal/mol
D12A | 3.85 kcal/mol

Variant | folding stability dG
D12C | 4.27 kcal/mol
D12N | 3.98 kcal/mol
K38S | 1.83 kcal/mol
G2I | 3.12 kcal/mol
G2P | 2.98 kcal/mol
G2C | 4.54 kcal/mol
G2R | 3 kcal/mol
G2E | 3.29 kcal/mol
G2S | 3.54 kcal/mol
G2W | 3.93 kcal/mol
G2M | 3.38 kcal/mol
G2D | 3.46 kcal/mol
E32M | 4.65 kcal/mol
E32K | 4.72 kcal/mol
E32C | 4.44 kcal/mol
E32Q | 4.09 kcal/mol
E32H | 3.54 kcal/mol
E32F | 4.1 kcal/mol
G34Y | 1.45 kcal/mol
G34S | 2 kcal/mol
G34C | 2.75 kcal/mol
G34T | 1.48 kcal/mol
G34F | 1.15 kcal/mol
